Results on 4 variants are retold here after IntAct's records for PubMed 31515488.

B1: Kinetochore protein NDC80 homolog (Homo sapiens), O14777 (parent)
chain: MKRSSVSSGGAGRLSMQELRSQDVNKQGLYTPQTKEKPTFGKLSINKPTSERKVSLFGKRTSGHGSRNSQLGIFSSSEKIKDPRPLNDKAFIQQCIRQLCEFLTENGYAHNVSMKSLQAPSVKDFLKIFTFLYGFLCPSYELPDTKFEEEVPRIFKDLGYPFALSKSSMYTVGAPHTWPHIVAALVWLIDCIKIHTAMKESSPLFDDGQPWGEETEDGIMHNKLFLDYTIKCYESFMSGADSFDEMNAELQSKLKDLFNVDAFKLESLEAKNRALNEQIARLEQEREKEPNRLESLRKLKASLQGDVQKYQAYMSNLESHSAILDQKLNGLNEEIARVELECETIKQENTRLQNIIDNQKYSVADIERINHERNELQQTINKLTKDLEAEQQKLWNEELKYARGKEAIETQLAEYHKLARKLKLIPKGAENSKGYDFEIKFNPEAGANCLVKYRAQVYVPLKELLNETEEEINKALNKKMGLEDTLEQLNAMITESKRSVRTLKEEVQKLDDLYQQKIKEAEEEDEKCASELESLEKHKHLLESTVNQGLSEAMNELDAVQREYQLVVQTTTEERRKVGNNLQRLLEMVATHVGSVEKHLEEQIAKVDREYEECMSEDLSENIKEIRDKYEKKATLIKSSEE
B2: Isoform 1 of Mothers against decapentaplegic homolog 3 (Homo sapiens), P84022-1 (parent)
chain: MSSILPFTPPIVKRLLGWKKGEQNGQEEKWCEKAVKSLVKKLKKTGQLDELEKAITTQNVNTKCITIPRSLDGRLQVSHRKGLPHVIYCRLWRWPDLHSHHELRAMELCEFAFNMKKDEVCVNPYHYQRVETPVLPPVLVPRHTEIPAEFPPLDDYSHSIPENTNFPAGIEPQSNIPETPPPGYLSEDGETSDHQMNHSMDAGSPNLSPNPMSPAHNNLDLQPVTYCEPAFWCSISYYELNQRVGETFHASQPSMTVDGFTDPSNSERFCLGLLSNVNRNAAVELTRRHIGRGVRLYYIGGEVFAECLSDSAIFVQSPNCNQRYGWHPATVCKIPPGCNLKIFNNQEFAALLAQSVNQGFEAVYQLTRMCTIRMSFVKGWGAEYRRQTVTSTPCWIELHLNGPLQWLDKVLTQMGSPSIRCSSVS

In one experiment the parent is B1. The following applies: with amol2_human AMOTL2, Q9Y2J4.
Chain of amol2_human AMOTL2, Q9Y2J4 (Q9Y2J4 whole entry): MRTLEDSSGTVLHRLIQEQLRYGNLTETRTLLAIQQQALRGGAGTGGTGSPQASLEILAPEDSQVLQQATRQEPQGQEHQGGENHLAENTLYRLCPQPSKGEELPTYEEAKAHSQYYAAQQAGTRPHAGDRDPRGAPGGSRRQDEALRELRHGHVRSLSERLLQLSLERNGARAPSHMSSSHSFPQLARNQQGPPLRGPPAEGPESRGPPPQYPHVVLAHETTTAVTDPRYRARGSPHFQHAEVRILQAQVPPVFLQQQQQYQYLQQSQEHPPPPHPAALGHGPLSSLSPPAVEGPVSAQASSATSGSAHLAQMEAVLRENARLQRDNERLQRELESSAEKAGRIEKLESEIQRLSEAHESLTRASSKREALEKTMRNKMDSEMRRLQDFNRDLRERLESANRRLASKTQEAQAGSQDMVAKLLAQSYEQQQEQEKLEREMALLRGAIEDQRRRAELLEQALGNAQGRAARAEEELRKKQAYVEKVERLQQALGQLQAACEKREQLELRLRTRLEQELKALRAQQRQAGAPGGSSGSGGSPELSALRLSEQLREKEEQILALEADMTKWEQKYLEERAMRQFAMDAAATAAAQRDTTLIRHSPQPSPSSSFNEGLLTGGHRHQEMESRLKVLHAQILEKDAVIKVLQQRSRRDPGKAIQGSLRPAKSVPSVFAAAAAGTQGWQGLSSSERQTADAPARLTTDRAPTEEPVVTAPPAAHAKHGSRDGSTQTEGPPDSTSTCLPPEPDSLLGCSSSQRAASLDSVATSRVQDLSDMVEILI
Take E348D: the “effect of a mutation on the interaction” value is “with no effect”.
Still for that read-out and setting: as for S55P, the entry is “with no effect”; as for A605P, “with no effect”.

In the next experiment the parent is B1. The conditions noted are these: with txlna_human TXLNA.
In the case of E348D, the “effect of a mutation on the interaction” value is recorded as “with no effect”.
As to S55P, the “effect of a mutation on the interaction” value is “with no effect”.
Take A605P: the “effect of a mutation on the interaction” value is “with no effect”.

In the next experiment the parent is B1. The following applies: with atf4_human ATF4, P18848.
Chain of atf4_human ATF4, P18848 (P18848 whole entry): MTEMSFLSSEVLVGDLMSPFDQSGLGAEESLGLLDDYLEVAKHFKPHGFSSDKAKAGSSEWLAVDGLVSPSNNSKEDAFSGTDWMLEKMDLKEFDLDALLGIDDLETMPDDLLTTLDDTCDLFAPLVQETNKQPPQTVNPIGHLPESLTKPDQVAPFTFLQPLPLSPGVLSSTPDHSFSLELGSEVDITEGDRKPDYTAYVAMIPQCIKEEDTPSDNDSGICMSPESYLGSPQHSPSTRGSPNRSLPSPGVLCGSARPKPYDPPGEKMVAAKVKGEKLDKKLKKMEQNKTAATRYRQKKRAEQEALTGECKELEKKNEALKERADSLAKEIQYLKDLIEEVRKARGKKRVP
Consider E348D, for which the “effect of a mutation on the interaction” value is recorded as “with no effect”.
With S55P, the “effect of a mutation on the interaction” value was “with no effect”.
As to A605P, the “effect of a mutation on the interaction” value is listed as “disrupting interaction strength”.

Variants of B1 are the subject of the next experiment. The conditions noted are these: with tnip1_human TNIP1, Q15025.
Chain of tnip1_human TNIP1, Q15025 (Q15025 whole entry): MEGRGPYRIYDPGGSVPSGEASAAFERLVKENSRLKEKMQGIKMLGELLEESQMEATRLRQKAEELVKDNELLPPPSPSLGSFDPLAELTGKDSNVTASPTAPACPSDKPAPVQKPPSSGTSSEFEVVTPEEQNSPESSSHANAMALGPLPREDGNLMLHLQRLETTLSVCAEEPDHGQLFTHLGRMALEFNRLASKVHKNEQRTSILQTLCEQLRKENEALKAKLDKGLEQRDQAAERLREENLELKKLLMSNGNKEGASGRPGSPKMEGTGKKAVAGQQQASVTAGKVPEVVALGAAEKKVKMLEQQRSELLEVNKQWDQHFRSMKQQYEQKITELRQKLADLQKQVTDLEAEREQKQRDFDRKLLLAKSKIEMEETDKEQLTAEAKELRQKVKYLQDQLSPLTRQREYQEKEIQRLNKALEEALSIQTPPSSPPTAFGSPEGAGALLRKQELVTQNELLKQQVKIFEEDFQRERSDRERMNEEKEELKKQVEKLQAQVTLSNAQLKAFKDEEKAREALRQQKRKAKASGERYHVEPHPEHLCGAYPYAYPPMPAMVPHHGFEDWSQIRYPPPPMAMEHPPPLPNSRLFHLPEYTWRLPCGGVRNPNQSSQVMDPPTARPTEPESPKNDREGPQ
As for E348D, the “effect of a mutation on the interaction” value is given as “with no effect”.
Still for that read-out and setting: as for S55P, the entry is “with no effect”; as for A605P, “disrupting interaction strength”.

The variants in another experiment derive from B2. The following applies: with smad4_human SMAD4, Q13485.
Chain of smad4_human SMAD4, Q13485 (Q13485 whole entry): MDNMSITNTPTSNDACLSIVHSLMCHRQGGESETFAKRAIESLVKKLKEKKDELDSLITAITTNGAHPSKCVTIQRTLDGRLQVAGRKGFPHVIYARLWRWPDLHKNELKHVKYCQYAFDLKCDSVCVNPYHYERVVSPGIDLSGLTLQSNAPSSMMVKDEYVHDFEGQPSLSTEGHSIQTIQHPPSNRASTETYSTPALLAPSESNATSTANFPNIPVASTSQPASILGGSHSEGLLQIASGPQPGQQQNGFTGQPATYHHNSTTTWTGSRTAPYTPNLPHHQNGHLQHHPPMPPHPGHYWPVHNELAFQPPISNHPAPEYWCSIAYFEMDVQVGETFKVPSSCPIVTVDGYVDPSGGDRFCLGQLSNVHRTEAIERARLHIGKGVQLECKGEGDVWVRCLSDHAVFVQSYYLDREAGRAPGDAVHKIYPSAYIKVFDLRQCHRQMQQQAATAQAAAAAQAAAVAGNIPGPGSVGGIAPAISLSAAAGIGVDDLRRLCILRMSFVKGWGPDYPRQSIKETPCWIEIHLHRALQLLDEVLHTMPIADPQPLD
With P393L, the “effect of a mutation on the interaction” value is “with no effect”.
